Reference: publication PMC5983932 (Oncology Reports, 2018)

B2: recombinant human His-tag-PRMT2 protein (protein arginine N-methyltransferase 2) (enzyme, UniProt P55345-1 1-433, looked up)
chain: MATSGDCPRSESQGEEPAECSEAGLLQEGVQPEEFVAIADYAATDETQLSFLRGEKILILRQTTADWWWGERAGCCGYIPANHVGKHVDEYDPEDTWQDEEYFGSYGTLKLHLEMLADQPRTTKYHSVILQNKESLTDKVILDVGCGTGIISLFCAHYARPRAVYAVEASEMAQHTGQLVLQNGFADIITVYQQKVEDVVLPEKVDVLVSEWMGTCLLFEFMIESILYARDAWLKEDGVIWPTMAALHLVPCSADKDYRSKVLFWDNAYEFNLSALKSLAVKEFFSKPKYNHILKPEDCLSEPCTILQLDMRTVQISDLETLRGELRFDIRKAGTLHGFTAWFSVHFQSLQEGQPPQVLSTGPFHPTTHWKQTLFMMDDPVPVHTGDVVTGSVVLQRNPVWRRHMSVALSWAVTSRQDPTSQKVGEKVFPIWR

Tests used:
[1] = molecular target: B2; test: pull-down
[2] = molecular target: T1, GST-ER-α66 fusion protein (UniProt P03372 1-595); test: pull-down
T1 sequence (looked up): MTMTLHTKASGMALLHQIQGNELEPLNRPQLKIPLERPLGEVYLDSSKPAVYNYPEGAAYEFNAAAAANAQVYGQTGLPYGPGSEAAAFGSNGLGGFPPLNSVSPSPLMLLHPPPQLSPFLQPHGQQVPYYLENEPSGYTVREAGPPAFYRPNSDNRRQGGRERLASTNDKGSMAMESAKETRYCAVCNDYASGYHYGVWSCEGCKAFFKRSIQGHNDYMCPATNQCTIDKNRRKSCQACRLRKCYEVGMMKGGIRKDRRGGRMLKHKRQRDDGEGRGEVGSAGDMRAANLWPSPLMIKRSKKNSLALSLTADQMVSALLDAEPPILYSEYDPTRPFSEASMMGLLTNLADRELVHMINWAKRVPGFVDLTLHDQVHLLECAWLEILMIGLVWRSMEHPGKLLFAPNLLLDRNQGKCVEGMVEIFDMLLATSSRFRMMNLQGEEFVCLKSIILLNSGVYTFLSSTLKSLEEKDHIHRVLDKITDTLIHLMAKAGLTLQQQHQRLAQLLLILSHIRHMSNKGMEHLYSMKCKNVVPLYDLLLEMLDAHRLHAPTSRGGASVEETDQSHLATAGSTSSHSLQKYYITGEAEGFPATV

B1: GST-ER-α36 fusion protein (receptor, UniProt P03372-4 1-310, looked up)
chain: MAMESAKETRYCAVCNDYASGYHYGVWSCEGCKAFFKRSIQGHNDYMCPATNQCTIDKNRRKSCQACRLRKCYEVGMMKGGIRKDRRGGRMLKHKRQRDDGEGRGEVGSAGDMRAANLWPSPLMIKRSKKNSLALSLTADQMVSALLDAEPPILYSEYDPTRPFSEASMMGLLTNLADRELVHMINWAKRVPGFVDLTLHDQVHLLECAWLEILMIGLVWRSMEHPGKLLFAPNLLLDRNQGKCVEGMVEIFDMLLATSSRFRMMNLQGEEFVCLKSIILLNSGISHVEAKKRILNLHPKIFGNKWFPRV
[1]
  binding result: binds

## B2
[2]
  binding result: binds
